Where a chain is given by its changes, count along the chain named.
T1: FZD4 CRD (Homo sapiens, UniProt Q9ULV1)
T1 construct: E42-V167; GPI anchor signal (C); expressed in transfected cells; host or cells: CHO cells, lentiviral pLenti-puro
T1 sequence (Q9ULV1 42-167): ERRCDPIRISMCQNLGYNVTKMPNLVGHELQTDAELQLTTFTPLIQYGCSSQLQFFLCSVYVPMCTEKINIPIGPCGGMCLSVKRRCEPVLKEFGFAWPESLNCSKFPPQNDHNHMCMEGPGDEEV

T2: FZD10 CRD (Homo sapiens, UniProt Q9ULW2)
T2 construct: 30-156; GPI anchor signal (C); expressed in transfected cells; host or cells: CHO cells, lentiviral pLenti-puro
T2 sequence (Q9ULW2 30-156): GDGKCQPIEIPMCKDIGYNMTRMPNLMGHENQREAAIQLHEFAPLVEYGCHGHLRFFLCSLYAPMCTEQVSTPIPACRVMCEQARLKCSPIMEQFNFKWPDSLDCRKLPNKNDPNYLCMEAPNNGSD

T3: FZD9 CRD (Homo sapiens, UniProt O00144)
T3 construct: G35-A161; GPI anchor signal (C); expressed in transfected cells; host or cells: CHO cells, lentiviral pLenti-puro
T3 sequence (O00144 35-161): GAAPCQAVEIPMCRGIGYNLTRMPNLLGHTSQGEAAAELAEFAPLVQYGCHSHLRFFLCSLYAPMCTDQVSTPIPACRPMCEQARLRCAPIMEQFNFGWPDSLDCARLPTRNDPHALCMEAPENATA

T4: FZD5 CRD (Homo sapiens, UniProt Q13467)
T4 construct: K29-T156; GPI anchor signal (C); expressed in transfected cells; host or cells: CHO cells, lentiviral pLenti-puro
T4 sequence (Q13467 29-156): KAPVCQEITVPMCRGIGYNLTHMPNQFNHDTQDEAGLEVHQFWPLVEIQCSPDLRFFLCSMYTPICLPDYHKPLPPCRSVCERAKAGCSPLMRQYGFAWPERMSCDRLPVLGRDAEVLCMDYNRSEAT

T5: FZD6 CRD (Homo sapiens, UniProt O60353)
T5 construct: S20-P146; GPI anchor signal (C); expressed in transfected cells; host or cells: CHO cells, lentiviral pLenti-puro
T5 sequence (O60353 20-146): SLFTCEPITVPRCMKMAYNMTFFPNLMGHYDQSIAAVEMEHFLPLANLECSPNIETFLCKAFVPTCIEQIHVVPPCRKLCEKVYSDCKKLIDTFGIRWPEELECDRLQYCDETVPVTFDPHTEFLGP

B1: Fab-2933: anti-FZD5 Fab with antibody variable region Fv-2933; CDR SEQ ID NOs: 35, 36, 72, 109, 148, 177 (antibody, V domains shown)
VH: EVQLVESGGGLVQPGGSLRLSCAASGFNLYSSYMHWVRQAPGKGLEWVASIYSSYGYTSYADSVKGRFTISADTSKNTAYLQMNSLRAEDTAVYYCARTVRGSKKPYFSGWAMDYWGQGTLVTVSS
VL: DIQMTQSPSSLSASVGDRVTITCRASQSVSSAVAWYQQKPGKAPKLLIYSASSLYSGVPSRFSGSRSGTDFTLTISSLQPEDFATYYCQQFWWYASWLFTFGQGTKVEIK
B2: Fab-2934: anti-FZD5 Fab with antibody variable region Fv-2934; CDR SEQ ID NOs: 35, 36, 73, 110, 149, 155 (antibody, V domains shown)
VH: EVQLVESGGGLVQPGGSLRLSCAASGFNISYSYMHWVRQAPGKGLEWVASIYSSSGSTSYADSVKGRFTISADTSKNTAYLQMNSLRAEDTAVYYCARGAIDYWGQGTLVTVSS
VL: DIQMTQSPSSLSASVGDRVTITCRASQSVSSAVAWYQQKPGKAPKLLIYSASSLYSGVPSRFSGSRSGTDFTLTISSLQPEDFATYYCQQWYHYGLITFGQGTKVEIK
B3: Fab-2935: anti-FZD5 Fab with antibody variable region Fv-2935; CDR SEQ ID NOs: 35, 36, 74, 111, 150, 178 (antibody, V domains shown)
VH: B2 VH with S30Y, S32Y, M34I, S53P, G99A, I101F
VL: DIQMTQSPSSLSASVGDRVTITCRASQSVSSAVAWYQQKPGKAPKLLIYSASSLYSGVPSRFSGSRSGTDFTLTISSLQPEDFATYYCQQWYGGYALITFGQGTKVEIK
B4: Fab-2936: anti-FZD5 Fab with antibody variable region Fv-2936; CDR SEQ ID NOs: 35, 36, 75, 112, 151, 179 (antibody, V domains shown)
VH: B2 VH with S32Y, G99A, I101M
VL: B2 VL with H93A, Y94A, G95S

System: PATU8988S cells
Experiment: Effect of anti-FZD5 Fabs on proliferation of pancreatic cancer cell lines (percent growth inhibition)
Assay type: cell-based, human
Details: Fab 2 μg/ml

Molecule | percent growth inhibition, PATU8988s 2 μg/ml
B1 | 6.02%
B2 | −9.14%
B3 | 2.48%
B4 | −8.03%

System: CHO cells not expressing Frizzled CRD
Experiment: Flow cytometry of anti-FZD5 Fab binding to CHO cells not expressing Frizzled CRD (background)
Details: not given
From the text: The binding of anti-FZD5 Fabs to cell surface-expressed Frizzled protein was further determined for each member of the Frizzled family via flow cytometry and immunofluorescence analysis of a panel of 10 CHO cell lines, each ectopically over-expressing the extracellular cysteine-rich domain (CRD) of a different Frizzled protein family member.

Molecule | Median fluorescence, Frizzled CRD overexpressed on CHO cells: None
B1 | 3.92
B2 | 3.13
B3 | 3.46
B4 | 2.81

System: ASPC-1 cells
Experiment: Effect of anti-FZD5 Fabs on proliferation of pancreatic cancer cell lines (percent growth inhibition)
Assay type: cell-based, human
Details: Fab 2 μg/ml

Molecule | percent growth inhibition, ASPC-1 2 μg/ml
B1 | −1.03%
B2 | 26.80%
B3 | 4.75%
B4 | 17.01%

System: RWP1 cells
Experiment: as above
Assay type: cell-based, human
Details: Fab 2 μg/ml

Molecule | percent growth inhibition, RWP1 2 μg/ml
B1 | −21.16%
B2 | 7.90%
B3 | −14.51%
B4 | 0.02%

Biological target: T1, FZD4 CRD
Experiment: Immunofluorescence of anti-FZD5 Fab binding to CHO cells overexpressing Frizzled CRD
Design: key: −: no binding; +: very weak binder; ++: weak binder; +++: good binder; ++++: very good binder
Details: not given
Summary of the method: (§1)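 Specificity of anti-FZD5 Fabs was tested on CHO cells displaying membrane-anchored Frizzled CRDs (myc-tagged, GPI-linked), one family member per line. Detection was by immunofluorescence.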

Molecule | Immunofluorescence binding, Frizzled CRD overexpressed on CHO cells: FZD4
B1 | +++
B2 | −
B3 | −
B4 | −

Biological target: T2, FZD10 CRD
Experiment: as above
Design: key: −: no binding; +: very weak binder; ++: weak binder; +++: good binder; ++++: very good binder
Details: not given
Summary of the method: as §1

Molecule | Immunofluorescence binding, Frizzled CRD overexpressed on CHO cells: FZD10
B1 | −
B2 | −
B3 | −
B4 | −

Biological target: T3, FZD9 CRD
Experiment: as above
Design: key: −: no binding; +: very weak binder; ++: weak binder; +++: good binder; ++++: very good binder
Details: not given
Summary of the method: as §1

Molecule | Immunofluorescence binding, Frizzled CRD overexpressed on CHO cells: FZD9
B1 | −
B2 | −
B3 | −
B4 | −

Biological target: T6, FZD2 CRD (Homo sapiens, UniProt Q14332)
T6 construct: D35-P161; GPI anchor signal (C); expressed in transfected cells; host or cells: CHO cells, lentiviral pLenti-puro
Experiment: as above
Design: key: −: no binding; +: very weak binder; ++: weak binder; +++: good binder; ++++: very good binder
Details: not given
Summary of the method: as §1

Molecule | Immunofluorescence binding, Frizzled CRD overexpressed on CHO cells: FZD2
B1 | −
B2 | −
B3 | −
B4 | −

Biological target: T4, FZD5 CRD
Experiment: as above
Design: key: −: no binding; +: very weak binder; ++: weak binder; +++: good binder; ++++: very good binder
Details: not given
Summary of the method: as §1

Molecule | Immunofluorescence binding, Frizzled CRD overexpressed on CHO cells: FZD5
B1 | ++++
B2 | ++++
B3 | ++++
B4 | ++++

Biological target: T5, FZD6 CRD
Experiment: as above
Design: key: −: no binding; +: very weak binder; ++: weak binder; +++: good binder; ++++: very good binder
Details: not given
Summary of the method: as §1

Molecule | Immunofluorescence binding, Frizzled CRD overexpressed on CHO cells: FZD6
B1 | −
B2 | −
B3 | −
B4 | −

— patent US20210253718A1, “FRIZZLED5 PROTEIN-BINDING AGENTS” (Modmab Therapeutics Corporation, priority 2016, published 2021)
